Test: yeast display, Sf9 membrane polyspecificity reagent, FACS + sequencing; frameworks hold sequencing errors
Outline: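 Synthetic nanobody libraries on Saccharomyces cerevisiae BJ5465 were galactose-induced for 36–48 hours, stained 1 hour at 4 °C with 10% biotinylated, detergent-solubilized Sf9 membrane reagent and enriched on streptavidin microbeads. FACS then separated cells into low and high (top ~1%) gates by anti-HA (expression) and streptavidin (reagent binding) fluorescence. Genes were colony-PCR amplified, MiSeq 2 × 250 sequenced and CDR-length filtered. A clone's polyreactivity label is that of its gate of origin.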

Sequence | polyreactivity (PSR sort gate)
QVQLVESGGGFVQAGGSLRLSCAASGRIFHHNAMGGYRQAPGKVRELDATITKSGGSTYADSVKGRFTISRANAKNTVYLQMNSRKPEETAVYSCAATSVGAYGVRKYWYDYWAQGTQVTVSS | low polyreactivity
QVQLVESGGGFVQAGGSLRLSCAASGRIFRIYAMGWYRQAPGKERELVAAITYRGGSTNYADSVKGRFTISRDNAKNTVYVQINSLKPEDTAVYDCAARSVYYGYTGYSYWGPGTQVTVSS | high polyreactivity
QVQLVESGGGFVQAGGSLRLSCAASGRIFRLYAMGWYRQAPGKEREFVAAITFSGGRTYYADSVKGRFTISRDNAKNNVYLQMNSLKPEDTAVYYCAARGQTGYYSGVGYWGQGTQVTVSS | high polyreactivity
QVQLVESGGGFVQAGGSLRLSCAASGSIFYYNAMGWYRQAPGKERELVAAIDWSGGITYYADSVKGRFTISRDNAKNTVYLQMNSLKPEDTAVYYCNVPMPPAKAEYGYWGQGTQVTVSS | high polyreactivity
QVQLVESGGGFVQAGGSLRLSCAASGSTFHDYVMGWYRQAPGKERELVATIRRGASTYYADSVKGRFTISRDNEKNTVYLQMNSLIPEDTAVYYCAVPATGGYFSSEYDYWGQGTQVTVSS | low polyreactivity
QVQLVESGGGFVQAGGSLRLSCAASVIFGYYAMGWYSQAPGKERELVAAINWRGDSTYYADSVKGRFTISRDNAKNTVYLQMNSLKPEDTAVYYCAAQRRDIALLYDYWGQGTQVTLSS | low polyreactivity
QVQLVESGGGFVQAGGSLRLSCAASVSILWWYAMGWSRKATVKERELVAAITWSGTSTYYADSVKGRFTISRVNGKNTLYLQMISLKPEETAVYYCAVRSYVNGGWYDYWGQGTQGTVSS | high polyreactivity
QVQLVESGGGFVQAGGSLRLTCAASGYIFANYGMGWYRQAPGKQMELVAAISGSGGSTYYADSVKGRFTISRDNAKNTVYLQMNSLKPQDTAVYYCAALSNWWSYFTCYDGSDGFDYWVQGTQVTVSS | low polyreactivity
QVQLVESGGGFVQAGGSLRVSCAASGSIFRPDAMGWYRPAPGKERELVAAITWSGGRTYYADSVKGRFTISRDNAKNTVDLQMNSLKPEDTAVYYCAARPRYYYWFKSGTRVEYDYWGQGTQVTVSS | high polyreactivity
QVQLVESGGGFVQAGGTLRLSCAASGFTFGYNAMGWYRHAPGKERELVAAISFSDGITYYADSVKRRFTISRDNAKNNVYLQMNSLKPEDTAVYYCAADLYFEYEYWGQGTQVTVSS | high polyreactivity
QVQLVESGGGFVQAVGSLRLSCAASGSTFPRYVLGWYRQAPGTARELVAAITWRGSTNDADSVKGRFTISRDNAKNTVYLQMNSLKPEDSAVYYCAAAFFARDRKRYNYWGQGTQVTVSS | high polyreactivity
QVQLVESGGGIDQAGGSLRLRCAASGSIFAYYAMGWYRQAPGKERELVAAISWNGGRTYYADSVKGRFTISRDNAKNTVYLQMNSLKPEDTAVYYCNAVRWAIYDYWGQGTQVTLSS | high polyreactivity
QVQLVESGGGIVHEGGSLRLSCAASGSIFFGYAMGWYRLAPGKELELVAAISASGGLTFYADSLKGRFTISRDNAKNTVYLQMNSLKPEDPAVYYCAKRGRSTYGYDYWGQGTQVTVSS | high polyreactivity
QVQLVESGGGIVQAGASLRLSCSASGFTQYPYTMGWNRHAPGKESELVAAITSSGATTYYADSVKGRFTISRDNAKNTVYLQMNRLKTEVTAVYYCAAGRAAAFGYLGQGTQVTVSS | high polyreactivity
QVQLVESGGGIVQAGCSLRLSCAASGSIFSHNAKVGYRQAPGKERELVAAITKGGGRTYYADSVKGRFTISRDNAKNTVYLQMNSLKPEDNAVYYCATAGAHGRERDYWGQGTQVTVSS | high polyreactivity
QVQLVESGGGIVQAGGILRLSCAASGRTLHYSAMVWYRQAPRIERELVAAISARGGRTYYADSVKGRYTISLDNAKNTVYLQMTSLKPEDTAVYYCAAAGYITGSDRYDYWGQGTLVTVSS | high polyreactivity
QVQLVESGGGIVQAGGRLRLSCAASGRIFYYNAMGWYRQAPGQERELVAVISRNGGRTYYADSVKGRFTISRDNAKNTVSFQMNSLKPEDTAVYYCAARSAGDRYDYWGQGTQVTVSS | high polyreactivity

From the nanobody polyreactivity screen of Harvey et al. (2022)
